Measurements: patent US9187525B2, “Methods of treating ophthalmic diseases using NPR-B agonists” (Shire Orphan Therapies GmbH, dated 2015)
Numbered stars: 1 amine (or outer) side, 2 acyl side, 3 side chain; on linkers, the order of the positions; unused ones are H or OH. Square brackets hold non-standard residues; d marks the D form. Ends that are not written are not given here. * marks the point of attachment. Tap(Ae) = (2S,4R)-4-(2-aminoethylamino)pyrrolidine-2-carboxylic acid, O=C([C@@H]1C[C@@H](NCCN[*:3])CN1[*:1])[*:2]; dap(6263)2 = (R)-2-amino-3-(bis(2-aminoethyl)amino)propanoic acid, NCCN(CCN[*:3])C[C@@H](N[*:1])C(=O)[*:2]; Tap(Ap) = 4-(3-amino-propylamino)-pyrrolidine-2-carboxylic acid; Pro(trans-4-NH2) = O=C([C@@H]1C[C@@H](N[*:3])CN1[*:1])[*:2]; Sni = (S)-nipecotic acid, O=C([C@H]1CCCN([*:1])C1)[*:2]; Eat = 2,3-dihydro-1H-indole-2-carboxylic acid; Oic = O=C(O)[C@@H]1C[C@@H]2CCCC[C@@H]2N1; dDap(Me2) = CN(C)C[C@@H](N)C(=O)O; Hyp = O=C(O)[C@@H]1C[C@@H](O)CN1; Dap(Me2) = CN(C)C[C@H](N)C(=O)O; Tic = O=C(O)[C@@H]1Cc2ccccc2CN1; NMeL = CN[C@@H](CC(C)C)C(=O)O; AR‑201‑58 = not defined here; AR‑201‑62 = not defined here; AR‑201‑68 = not defined here; AR‑201‑69 = not defined here; AR‑201‑72 = not defined here; AR‑201‑73 = not defined here; Octanoyl = CCCCCCCC(=O)*; Thz = O=C(O)[C@@H]1CSCN1; Aze = O=C(O)[C@@H]1CCN1; Nbt = 4-butyl-thiazole; Sbt = 5-butyl-thiazole; Occ = octanoic acid

T1: natriuretic peptide receptor-B (human)
T1 chain: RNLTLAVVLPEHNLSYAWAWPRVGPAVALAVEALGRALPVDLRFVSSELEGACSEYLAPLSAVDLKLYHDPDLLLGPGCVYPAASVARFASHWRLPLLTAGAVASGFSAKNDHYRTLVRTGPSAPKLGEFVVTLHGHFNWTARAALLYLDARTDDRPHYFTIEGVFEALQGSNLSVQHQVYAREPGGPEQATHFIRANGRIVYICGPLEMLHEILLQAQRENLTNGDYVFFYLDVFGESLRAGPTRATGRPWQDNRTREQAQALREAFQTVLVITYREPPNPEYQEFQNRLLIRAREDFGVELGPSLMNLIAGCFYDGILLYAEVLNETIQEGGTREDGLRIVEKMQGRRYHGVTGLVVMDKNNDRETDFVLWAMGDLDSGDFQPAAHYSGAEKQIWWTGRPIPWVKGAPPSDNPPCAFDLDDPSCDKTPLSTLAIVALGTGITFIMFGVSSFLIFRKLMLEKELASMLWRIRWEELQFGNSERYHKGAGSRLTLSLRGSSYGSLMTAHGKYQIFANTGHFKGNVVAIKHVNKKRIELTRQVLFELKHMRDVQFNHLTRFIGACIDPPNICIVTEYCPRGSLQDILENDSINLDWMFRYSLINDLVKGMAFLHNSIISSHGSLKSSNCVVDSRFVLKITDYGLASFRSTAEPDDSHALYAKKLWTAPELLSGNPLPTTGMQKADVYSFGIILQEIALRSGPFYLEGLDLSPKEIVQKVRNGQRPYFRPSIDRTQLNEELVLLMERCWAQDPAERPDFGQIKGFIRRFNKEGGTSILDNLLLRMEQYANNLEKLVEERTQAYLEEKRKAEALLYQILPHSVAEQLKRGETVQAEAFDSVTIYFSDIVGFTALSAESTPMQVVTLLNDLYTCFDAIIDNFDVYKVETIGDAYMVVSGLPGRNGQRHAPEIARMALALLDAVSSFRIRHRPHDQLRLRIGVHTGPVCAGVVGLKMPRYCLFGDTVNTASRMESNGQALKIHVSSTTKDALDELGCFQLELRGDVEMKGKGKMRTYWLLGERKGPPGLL

B1: JAL-1367 (peptide)
peptide: Octanoyl-[dA]F[dL]L[Hyp][Dap(Me2)]DRI-NH2
B2: JAL-1369 (peptide)
peptide: Octanoyl-[Sni]F[dDap(Me2)]L[Pro(trans-4-NH2)][NMeL]DRI-NH2
B3: JAL-1398 (peptide)
peptide: Octanoyl-[Sni]F[dL]L[Hyp][NMeL]VRI-NH2
B4: JAL-1377 (peptide)
peptide: [AR‑201‑72]F[dR]L[Hyp][NMeL]DRI-NH2
modifications: reading uncertain; also: printed as (AR-201-72)-Phe-arg-Leu-Hyp-Nml-Asp-Arg-Ile-NH2
B5: JAL-1375 (peptide)
peptide: [AR‑201‑69]F[dL]L[Hyp][NMeL]DRI-NH2
modifications: reading uncertain; also: printed as (AR-201-69)-Phe-leu-Leu-Hyp-Nml-Asp-Arg-Ile-NH2
B6: JAL-1387 (peptide)
peptide: Octanoyl-[dA]F[dR]L[Hyp]PDRI-NH2
B7: JAL-1383 (peptide)
peptide: Nbt-[Sni]F[dL]L[Hyp][NMeL]DRI-NH2
B8: JAL-1396 (peptide)
peptide: Octanoyl-[dA]F[dR]L[Hyp][Tic]DRI-NH2
B9: JAL-1368 (peptide)
peptide: Octanoyl-[dA]F[dL][Dap(Me2)][Hyp][NMeL]DRI-NH2
B10: JAL-1382 (peptide)
peptide: Sbt-[Sni]F[dL]L[Hyp][NMeL]DRI-NH2
B11: JAL-1370 (peptide)
peptide: [Occ][Sni]F[dap(6263)2]L[Pro(trans-4-NH2)][NMeL]DRI-NH2
B12: JAL-1393 (peptide)
peptide: Octanoyl-[dA]F[dR]L[Hyp][Aze]DRI-NH2
B13: JAL-1400 (peptide)
peptide: Octanoyl-[Sni]F[dDap(Me2)]L[Hyp][NMeL]VRI-NH2
B14: JAL-1378 (peptide)
peptide: [AR‑201‑73]F[dL]L[Hyp][NMeL]DRI-NH2
modifications: reading uncertain; also: printed as (AR-201-73)-Phe-leu-Leu-Hyp-Nml-Asp-Arg-Ile-NH2
B15: JAL-1372 (peptide)
peptide: Octanoyl-[Sni]F[dL]L[Tap(Ap)][NMeL]DRI-NH2
B16: JAL-1379 (peptide)
peptide: [AR‑201‑73]F[dR]L[Hyp][NMeL]DRI-NH2
modifications: reading uncertain; also: printed as (AR-201-73)-Phe-arg-Leu-Hyp-Nml-Asp-Arg-Ile-NH2
B17: JAL-0649 (peptide)
peptide: XXFGLKLDRI
HELM: PEPTIDE1{[CCCCCC(=O)[*:2]].[O=C(Cc1cccc(N[*:1])c1)[*:2]].F.G.L.K.L.D.R.I.[am]}$$$$V2.0
SMILES: CCCCCC(=O)Nc1cccc(CC(=O)N[C@@H](Cc2ccccc2)C(=O)NCC(=O)N[C@@H](CC(C)C)C(=O)N[C@@H](CCCCN)C(=O)N[C@@H](CC(C)C)C(=O)N[C@@H](CC(=O)O)C(=O)N[C@@H](CCCNC(=N)N)C(=O)N[C@H](C(N)=O)[C@@H](C)CC)c1
B18: JAL-0650 (peptide)
peptide: XXFGLKLDRI
HELM: PEPTIDE1{[CCCCCC(=O)[*:2]].[O=C(Cc1ccc(N[*:1])cc1)[*:2]].F.G.L.K.L.D.R.I.[am]}$$$$V2.0
SMILES: CCCCCC(=O)Nc1ccc(CC(=O)N[C@@H](Cc2ccccc2)C(=O)NCC(=O)N[C@@H](CC(C)C)C(=O)N[C@@H](CCCCN)C(=O)N[C@@H](CC(C)C)C(=O)N[C@@H](CC(=O)O)C(=O)N[C@@H](CCCNC(=N)N)C(=O)N[C@H](C(N)=O)[C@@H](C)CC)cc1
B19: JAL-1386 (peptide)
peptide: Octanoyl-[dA]F[dL]L[Hyp][Oic]DRI-NH2
B20: JAL-1376 (peptide)
peptide: [AR‑201‑72]F[dL]L[Hyp][NMeL]DRI-NH2
modifications: reading uncertain; also: printed as (AR-201-72)-Phe-leu-Leu-Hyp-Nml-Asp-Arg-Ile-NH2
B21: JAL-1394 (peptide)
peptide: Octanoyl-[dA]F[dR]L[Hyp][Eat]DRI-NH2
B22: JAL-1395 (peptide)
peptide: Octanoyl-[dA]F[dR]L[Hyp][Thz]DRI-NH2
B23: JAL-1381 (peptide)
peptide: [AR‑201‑68]F[dR]L[Hyp][NMeL]DRI-NH2
modifications: reading uncertain; also: printed as (AR-201-68)-Phe-arg-Leu-Hyp-Nml-Asp-Arg-Ile-NH2
B24: JAL-1373 (peptide)
peptide: [AR‑201‑58]F[dL]L[Hyp][NMeL]DRI-NH2
modifications: reading uncertain; also: printed as (AR-201-58)-Phe-leu-Leu-Hyp-Nml-Asp-Arg-Ile-NH2
B25: JAL-1399 (peptide)
peptide: Octanoyl-[Sni]F[dL]L[Hyp][NMeL]VRI-NH2
B26: JAL-1371 (peptide)
peptide: Octanoyl-[Sni]F[dL]L[Tap(Ae)][NMeL]DRI-NH2
B27: JAL-1380 (peptide)
peptide: [AR‑201‑68]F[dL]L[Hyp][NMeL]DRI-NH2
modifications: reading uncertain; also: printed as (AR-201-68)-Phe-leu-Leu-Hyp-Nml-Asp-Arg-Ile-NH2
B28: JAL-1374 (peptide)
peptide: [AR‑201‑62]F[dL]L[Hyp][NMeL]DRI-NH2
modifications: reading uncertain; also: printed as (AR-201-62)-Phe-leu-Leu-Hyp-Nml-Asp-Arg-Ile-NH2

Target: T1, natriuretic peptide receptor-B
Test: cell-based or functional assay

Binder | EC50 group, cGMP in GTM-3 cells [µM]
B1 | ≤ 1
B2 | ≤ 1
B3 | ≤ 1
B4 | ≤ 15
B5 | ≤ 5
B6 | ≤ 15
B7 | ≤ 5
B8 | ≤ 5
B9 | ≤ 5
B10 | ≤ 1
B11 | ≤ 5
B12 | ≤ 15
B13 | ≤ 15
B14 | ≤ 5
B15 | ≤ 1
B16 | ≤ 5
B17 | ≤ 15
B18 | ≤ 15
B19 | ≤ 5
B20 | ≤ 15
B21 | ≤ 15
B22 | ≤ 15
B23 | ≤ 5
B24 | ≤ 5
B25 | ≤ 5
B26 | ≤ 1
B27 | ≤ 1
B28 | ≤ 5
